In US10883980 (TRUSTEES OF PRINCETON UNIVERSITY, dated 2021):
Substitutions are numbered along the chain they refer to.

How the values were obtained:
[1] = molecular target: the molecule itself; test: Western blot (anti-HA) of lysates from cells expressing ORF3-HA; self-association
[2] = molecular target: the molecule itself; test: Western blot (anti-HA) of HepG2C3A lysates; self-association

B1: ORF3-HA (HA-tagged wild-type HEV ORF3 protein, Kernow C1/p6) (other)
chain: MGSPCALGLFCCCSSCFCLCCPRHRPASRLAVVVGGAAAVPAVVSGVTGLILSPSPSPIFIQPTPSPPISFHNPGLELALGSRPAPLAPLGVTSPSAPPLPPAVDLPQLGLRR
notes: Expressed by lentivirus in HepG2C3A cells and tested in cell lysate; also called HEV ORF3-HA; HA-tagged ORF3; not shown: HA tag; the name ORF3-HA puts it at the C-terminus
binding result [1]: binds

B2: ORF3[IFI59-61AAA], HA-tagged (other)
chain: B1 chain with I59A, F60A, I61A
notes: Alanine triplet mutant of Kernow C1/p6 ORF3; also called ORF3[IF159-61AAA]; not shown: HA tag
binding result [2]: binds
